Biological target: T1, rN2 (A/Hong Kong/1/1968), soluble recombinant neuraminidase (influenza A virus A/Hong Kong/1/1968 …)
T1 chain: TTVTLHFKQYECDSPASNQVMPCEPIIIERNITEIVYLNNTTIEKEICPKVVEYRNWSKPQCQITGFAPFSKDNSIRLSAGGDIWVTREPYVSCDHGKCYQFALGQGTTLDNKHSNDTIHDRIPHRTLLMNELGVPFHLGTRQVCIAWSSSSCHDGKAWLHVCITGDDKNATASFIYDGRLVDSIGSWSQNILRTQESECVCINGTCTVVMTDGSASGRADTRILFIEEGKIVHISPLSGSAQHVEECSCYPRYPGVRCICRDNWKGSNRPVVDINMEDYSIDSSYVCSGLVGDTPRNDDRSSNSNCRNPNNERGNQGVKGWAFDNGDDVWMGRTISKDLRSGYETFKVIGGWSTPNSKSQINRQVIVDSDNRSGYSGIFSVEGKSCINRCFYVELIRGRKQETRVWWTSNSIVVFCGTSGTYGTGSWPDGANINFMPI
Test: ELISA
Details: both partners purified

B1: r1G01 (recombinant version of the previously described mAb 1G01) (antibody, V domains shown)
VH: EVQLVESGGRALRPGGSLRLSCAASGFKFDDYAMSWVRQVPGKGLEFVSGLNWNGDITAYTDSVKGRFTVSRDNAKNSLYLHINSPKPEDTALYYCARTSSWGDYTRGPEPKITWYFDLWGRGTLVTVSS
VL: DIQLTQSPSFLSASVGDRITITCRASQGIDGYLAWYQQRPGKAPNLLIYAASLLQSGVPSRFSGSGYGTEFTLTISSLQPEDFATYYCQHLDSYPLFTFGPGTKVDIK
binding result: binds

B2: rFNI9 (recombinant version of the broadly neutralizing NA antibody FNI9) (antibody, V domains shown)
VH: QVHLVQSGAEVKEPGSSVTVSCKASGGSFNNQAISWVRQAPGQGLEWMGGIFPISGTPTSAQRFQGRVTFTADESTTTVYMDLSSLRSDDTAVYYCARAGSDYFNRDLGWENYYFASWGQGTLVTVSS
VL: EIVMTQSPATLSLSSGERATLSCRASRSVSSNLAWYQQKPGQAPRLLIYDASTRATGFSARFAGSGSGTEFTLTISSLQSEDSAIYYCQQYNNWPPWTFGQGTKVEIK
binding result: binds

Reference: publication PMC12646661 (The Journal of Clinical Investigation, 2025)
